Reference: paper PMC2174279

Columns and labels:
[1] = target: Arc40p (LexA two-hybrid bait) (S. cerevisiae) (UniProt P38328); experiment: two-hybrid
[2] = target: Arc40p-HA (S. cerevisiae) (UniProt P38328); experiment: co-IP
Bee1p-HA (S. cerevisiae) = experiment: co-IP
[3] = target: Bee1p (1-633) (S. cerevisiae); experiment: two-hybrid
[4] = target: peptide PRP2-1 (…), LexA bait; experiment: two-hybrid
[5] = target: Bee1p (166-633) (S. cerevisiae); experiment: two-hybrid
[6] = target: peptide PRP2 (…), LexA bait; experiment: two-hybrid
[7] = target: Bee1p (1-165) (S. cerevisiae); experiment: two-hybrid
[8] = target: Arc19p (LexA two-hybrid bait) (S. cerevisiae) (UniProt P33204); experiment: two-hybrid

“Bee1p-WH2-AD (531-633) (domain or fragment)” showed a LacZ expression (two-hybrid) [1] of 18 Miller units.
Work on “Myo3p (from UniProt P36006 1-1272) (natural protein)” yielded a percent of the total Myo3p in the extract coimmunoprecipitated [2] of 1% and a percent of the total Myo3p in the extract coimmunoprecipitated (Bee1p-HA (S. cerevisiae)) of 1%.
Substance “Myo3p(SH3-W1157S) (from UniProt P36006 1-1272) (natural protein)” has a percent coimmunoprecipitated [2] of 0.1%.
In the case of “Myo3p-AD (1182-1271) (from UniProt P36006 1182-1271) (domain or fragment)”, the LacZ expression (two-hybrid) [1] is reported as 151 Miller units.
In the case of “Myo3p-AD-32 (1239-1271) (from UniProt P36006 1239-1271) (domain or fragment)”, the LacZ expression (two-hybrid) [1] is reported as 25 Miller units.
In the case of “Myo3p-SH3 (1118-1188) (from UniProt P36006 1118-1188) (domain or fragment)”, the LacZ expression (two-hybrid) [3] is reported as 1760 Miller units.
Substance “Myo3p-SH3(W1157S)-AD (1118-1271) (from UniProt P36006 1118-1271) (domain or fragment)” has a LacZ expression (two-hybrid) [1] of 366 Miller units.
“Myo3p-SH3-AD (1118-1271) (from UniProt P36006 1118-1271) (domain or fragment)” showed a LacZ expression (two-hybrid) [1] of 458 Miller units, a LacZ expression (two-hybrid) [4] of 219 Miller units and a LacZ expression (two-hybrid) [5] of 113 Miller units. It also gave a LacZ expression (two-hybrid) [6] of 210 Miller units, a LacZ expression (two-hybrid) [7] of 1200 Miller units and a LacZ expression (two-hybrid) [3] of 715 Miller units. The LacZ expression (two-hybrid) [8] was 152 Miller units.
Work on “Myo3pΔAD (from UniProt P36006 1-1188) (domain or fragment)” yielded a percent coimmunoprecipitated (Bee1p-HA (S. cerevisiae)) of 1%.
